Substrate in the data set: O=C(O)C(=O)O
Briefly: purified protein. The note with it: typical values given as a range; decarboxylase activity; Mn enzyme.

B1: Oxalate Decarboxylase (OxDC), WT, His6-tagged (Bacillus subtilis subsp. subtilis str. 168) (protein)
chain: MKKQNDIPQPIRGDKGATVKIPRNIERDRQNPDMLVPPETDHGTVSNMKFSFSDTHNRLEKGGYAREVTVRELPISENLASVNMRLKPGAIRELHWHKEAEWAYMIYGSARVTIVDEKGRSFIDDVGEGDLWYFPSGLPHSIQALEEGAEFLLVFDDGSFSENSTFQLTDWLAHTPKEVIAANFGVTKEEISNLPGKEKYIFENQLPGSLKDDIVEGPNGEVPYPFTYRLLEQEPIESEGGKVYIADSTNFKVSKTIASALVTVEPGAMRELHWHPNTHEWQYYISGKARMTVFASDGHARTFNYQAGDVGYVPFAMGHYVENIGDEPLVFLEIFKDDHYADVSLNQWLAMLPETFVQAHLDLGKDFTDVLSKEKHPVVKKKCSK
In the case of B1, the kcat is on record as 50 − 60 s^-1.

(Values after doi:10.1101/426874v1.)
